Data reported in patent US20260241049A1, “Radiopharmaceutical Compositions Targeting Glypican-3 and Uses Thereof” (RayzeBio, Inc., priority 2023, published 2026).
Starred links: 1 amine or outer side, 2 acyl side, 3 side chain; linkers in the order of their positions; H or OH if unused. Positions of bridges follow the written chain, without caps; N, C: chain ends. Non-standard residues stand in square brackets, D forms with d. Residues, ends and D or L forms follow the SMILES beside them. Groups on a side chain read outwards from the residue. Primed or numbered codes have the meaning given here. *: point of attachment. MeKCOpipzaa″ = (2S)-6-{[4-(carboxymethyl)piperazine-1-carbonyl]amino}-2-(methylamino)hexanoic acid, CN([C@@H](CCCCNC(=O)N1CCN(CC(=O)[*:3])CC1)C(=O)[*:2])[*:1]; MeHseMe″ = (2S)-4-methoxy-2-(methylamino)butanoic acid (N-methyl-O-methyl-L-homoserine), COCC[C@@H](C(=O)[*:2])N(C)[*:1]; TMe(3) = O-methyl-L-threonine ((2S,3R)-2-amino-3-methoxybutanoic acid), CO[C@H](C)[C@H](N[*:1])C(=O)[*:2]; F4aao = 4-(carboxymethoxy)-L-phenylalanine, O=C([C@H](Cc1ccc(OCC(=O)[*:3])cc1)N[*:1])[*:2]; MeHseMe = N-methyl-O-methyl-L-homoserine, COCC[C@@H](C(=O)[*:2])N(C)[*:1]; Hgn = 2,6-diamino-6-oxohexanoic acid, NC(=O)CCC[C@H](N[*:1])C(=O)[*:2]; Phe(4-(1-Me-pyrazol-4-yl)) = Cn1cc(-c2ccc(C[C@H](N)C(=O)O)cc2)cn1; SulfoCy5″ = sulfo-Cyanine5 hexanoyl dye as amide on the lysine NZ; TMe = O-methyl-L-threonine, CO[C@H](C)[C@H](N[*:1])C(=O)[*:2]; NMeAla(isoquinolin-7-yl) = CN[C@@H](Cc1ccc2ccncc2c1)C(=O)O; SulfoCy5(3) = sulfo-Cyanine5 hexanoyl dye on the lysine NZ; PEG12 = NCCOCCOCCOCCOCCOCCOCCOCCOCCOCCOCCOCCOCCC(=O)O; Phe(4-CH2COOH) = N[C@@H](Cc1ccc(CC(=O)O)cc1)C(=O)O; 3Pal(6-Ph) = N[C@@H](Cc1ccc(-c2ccccc2)nc1)C(=O)O; Biotin = O=C1N[C@H]2[C@H](CS[C@H]2CCCCC(=O)*)N1; Phe(4-COOH) = N[C@@H](Cc1ccc(C(=O)O)cc1)C(=O)O; Piperazinyl(4-CH2COOH) = O=C(O)CN1CCN(*)CC1; NMe2Nal = CN[C@@H](Cc1ccc2ccccc2c1)C(=O)O; AEF = NCCOc1ccc(C[C@H](N)C(=O)O)cc1; NMeY = CN[C@@H](Cc1ccc(O)cc1)C(=O)O; NMeI = CC[C@H](C)[C@H](NC)C(=O)O; NMeQ = CN[C@@H](CCC(N)=O)C(=O)O; NMehSer = CN[C@@H](CCO)C(=O)O; NMeK = CN[C@@H](CCCCN)C(=O)O; NMeDap = CN[C@@H](CN)C(=O)O; NMeC = CN[C@@H](CS)C(=O)O; NMeA = CN[C@@H](C)C(=O)O; MeK = methyl-L-lysine; CO = O=C([*:1])[*:2]

B1: Macrocyclic peptide of Example 2-54 (SEQ ID No. 29) (peptide)
peptide: {CH2CO}-[MeK][NMeQ][Hgn][NMeQ][Phe(4-COOH)][TMe(3)]IY[NMe2Nal]G[Phe(4-(1-Me-pyrazol-4-yl))][NMeC]-NH2
modifications: thioether N-12
B2: Macrocyclic peptide of Example 2-52 (SEQ ID No. 26) (peptide)
peptide: {CH2CO}-[NMeQ][NMeQ]D[MeK][Phe(4-COOH)]II[Phe(4-CH2COOH)][NMe2Nal]G[Phe(4-(1-Me-pyrazol-4-yl))][NMeC]-NH2
modifications: thioether N-12
B3: PLB-28 (peptide)
peptide: {CH2CO}-[NMeQ][NMeQ]D[NMeQ][Phe(4-COOH)]II[AEF]([PEG12-Biotin])[NMe2Nal]G[Phe(4-(1-Me-pyrazol-4-yl))][NMeC]-NH2
modifications: thioether N-12
SMILES: CC[C@H](C)[C@@H]1NC(=O)[C@H](Cc2ccc(C(=O)O)cc2)NC(=O)[C@H](CCC(N)=O)N(C)C(=O)[C@H](CC(=O)O)NC(=O)[C@H](CCC(N)=O)N(C)C(=O)[C@H](CCC(N)=O)N(C)C(=O)CSC[C@@H](C(N)=O)N(C)C(=O)[C@H](Cc2ccc(-c3cnn(C)c3)cc2)NC(=O)CNC(=O)[C@H](Cc2ccc3ccccc3c2)N(C)C(=O)[C@H](Cc2ccc(OCCNC(=O)CCOCCOCCOCCOCCOCCOCCOCCOCCOCCOCCOCCOCCNC(=O)CCCC[C@@H]3SC[C@@H]4NC(=O)N[C@@H]43)cc2)NC(=O)[C@H]([C@@H](C)CC)NC1=O
B4: Macrocyclic peptide of Example 2-55 (SEQ ID No. 56) (peptide)
peptide: {CH2CO}-[MeKCOpipzaa″][NMeA]D[NMeY][Phe(4-COOH)][TMe]I[AEF][NMeY]G[3Pal(6-Ph)][NMeC]-NH2
modifications: thioether N-12
SMILES: CC[C@H](C)[C@@H]1NC(=O)[C@H]([C@@H](C)OC)NC(=O)[C@H](Cc2ccc(C(=O)O)cc2)NC(=O)[C@H](Cc2ccc(O)cc2)N(C)C(=O)[C@H](CC(=O)O)NC(=O)[C@H](C)N(C)C(=O)[C@H](CCCCNC(=O)N2CCN(CC(=O)O)CC2)N(C)C(=O)CSC[C@@H](C(N)=O)N(C)C(=O)[C@H](Cc2ccc(-c3ccccc3)nc2)NC(=O)CNC(=O)[C@H](Cc2ccc(O)cc2)N(C)C(=O)[C@H](Cc2ccc(OCCN)cc2)NC1=O
B5: Macrocyclic peptide of Example 2-53 (SEQ ID No. 28) (peptide)
peptide: {CH2CO}-[NMeQ][NMeQ]D[NMeQ][Phe(4-COOH)]II[AEF][NMe2Nal]G[Phe(4-(1-Me-pyrazol-4-yl))][NMeC]-NH2
modifications: thioether N-12
SMILES: CC[C@H](C)[C@@H]1NC(=O)[C@H](Cc2ccc(C(=O)O)cc2)NC(=O)[C@H](CCC(N)=O)N(C)C(=O)[C@H](CC(=O)O)NC(=O)[C@H](CCC(N)=O)N(C)C(=O)[C@H](CCC(N)=O)N(C)C(=O)CSC[C@@H](C(N)=O)N(C)C(=O)[C@H](Cc2ccc(-c3cnn(C)c3)cc2)NC(=O)CNC(=O)[C@H](Cc2ccc3ccccc3c2)N(C)C(=O)[C@H](Cc2ccc(OCCN)cc2)NC(=O)[C@H]([C@@H](C)CC)NC1=O
B6: Macrocyclic peptide of Example 2-56 (SEQ ID No. 27) (peptide)
peptide: {CH2CO}-[NMeQ][NMeQ]D[NMeQ][AEF]II[Phe(4-CH2COOH)][NMe2Nal]G[Phe(4-(1-Me-pyrazol-4-yl))][NMeC]-NH2
modifications: thioether N-12
SMILES: CC[C@H](C)[C@@H]1NC(=O)[C@H](Cc2ccc(OCCN)cc2)NC(=O)[C@H](CCC(N)=O)N(C)C(=O)[C@H](CC(=O)O)NC(=O)[C@H](CCC(N)=O)N(C)C(=O)[C@H](CCC(N)=O)N(C)C(=O)CSC[C@@H](C(N)=O)N(C)C(=O)[C@H](Cc2ccc(-c3cnn(C)c3)cc2)NC(=O)CNC(=O)[C@H](Cc2ccc3ccccc3c2)N(C)C(=O)[C@H](Cc2ccc(CC(=O)O)cc2)NC(=O)[C@H]([C@@H](C)CC)NC1=O
B7: Mod3 (peptide)
peptide: {CH2CO}-[NMeA][MeHseMe″]D[NMeQ][Phe(4-COOH)][TMe]I[AEF][NMe2Nal]G[3Pal(6-Ph)][NMeC]-NH2
modifications: thioether N-12; not fully specified (residue 8)
B8: PLD-45 (peptide)
peptide: {CH2CO}-K[MeHseMe]D[NMeQ][Phe(4-COOH)][TMe]IY[NMeAla(isoquinolin-7-yl)]G[3Pal(6-Ph)][NMeC]-NH2
modifications: thioether N-12; not fully specified (residue 1); printed as MeK-MeHseMe-D-MeQ-F4COO-TMe-I-Y-MeNal27N-G-3Py6Ph-MeC-NH2
notes: SulfoCy5 conjugate
B9: PLD-30 (peptide)
peptide: {CH2CO}-[NMeK](SulfoCy5″)[NMeI]D[NMeQ][Phe(4-COOH)][TMe]I[F4aao][NMeAla(isoquinolin-7-yl)]G[3Pal(6-Ph)][NMeC]-NH2
modifications: thioether N-12
B10: Mod7 (peptide)
peptide: {CH2CO}-[NMeK](SulfoCy5(3))[MeHseMe]D[NMeQ][Phe(4-COOH)][TMe]I[F4aao][NMeAla(isoquinolin-7-yl)]G[3Pal(6-Ph)][NMeC]-NH2
modifications: thioether N-12
B11: PLB-60 (peptide)
peptide: KIDQFIIYFGXCG
modifications: not fully specified; MeKAc-MeI-D-MeQ-F4COO-I-I-Y-MeNal27N-G-3Py6Ph-MeC-G-PEG12c-K(biotin)-NH2 by Table 13 (Table 1 prints PEG10c and K at positions 14 and 15 of SEQ ID No. 60); thioether ring from N-terminal acetyl to MeC12
notes: Biotin on the C-terminal tail outside the ring
B12: PLB-30 (peptide)
peptide: {CH2CO}-[NMeK]([PEG12-Biotin])[NMeI]D[NMeQ][Phe(4-COOH)][TMe]I[F4aao][NMeAla(isoquinolin-7-yl)]G[3Pal(6-Ph)][NMeC]-NH2
modifications: thioether N-12
SMILES: CC[C@H](C)[C@@H]1NC(=O)[C@H]([C@@H](C)OC)NC(=O)[C@H](Cc2ccc(C(=O)O)cc2)NC(=O)[C@H](CCC(N)=O)N(C)C(=O)[C@H](CC(=O)O)NC(=O)[C@H]([C@@H](C)CC)N(C)C(=O)[C@H](CCCCNC(=O)CCOCCOCCOCCOCCOCCOCCOCCOCCOCCOCCOCCOCCNC(=O)CCCC[C@@H]2SC[C@@H]3NC(=O)N[C@@H]32)N(C)C(=O)CSC[C@@H](C(N)=O)N(C)C(=O)[C@H](Cc2ccc(-c3ccccc3)nc2)NC(=O)CNC(=O)[C@H](Cc2ccc3ccncc3c2)N(C)C(=O)[C@H](Cc2ccc(OCC(=O)O)cc2)NC1=O

What follows are molecules tested against Human Glypican3-Fc (Homo sapiens, UniProt P51654) (assay: SPR binding to Glypican-3, Method B-3 (Glypican3-Fc captured on Protein A chip, 5-point dilution series)). Conditions: SPR method B-3.
Protocol: (§1) A Protein A sensor chip (Cytiva) was inserted into a Biacore T200 (Cytiva), priming was performed three times with a running buffer: HBS-P+, pH 7.4 (Cytiva), and equilibration was carried out at a flow rate of 30 μL/min. Glypican3-Fc was allowed to react for 60 seconds at a flow rate of 10 μL/min. After capturing human Glypican3-Fe, a peptide solution prepared to 10 mM in DMSO solution was diluted with a running buffer to a final concentration of 10 μM. After that, 5 serial dilution series (100 nM, 50 nM, 25 nM, 10 nM, 5 nM) of peptide solutions were prepared. Using the above samples, peptide kinetics for Glypican3 was obtained by SPR measurement. Kinetics evaluation of Glypican3 was performed by SPR measurements at a flow rate of 10 LL/min, setting the association time to 120 seconds and the disassociation time to 600 seconds.
(§2) The obtained data by Method B-1, Method B-2, Method B-3 and Method B-4 were analyzed by follow. Single Cycle Kinetics was used as the kinetics evaluation model, and curve fitting was performed using Biacore T200 Evaluation Software Version 3.0 (Cytiva).
With CC[C@H](C)[C@@H]1NC(=O)[C@H](Cc2ccc(C(=O)O)cc2)NC(=O)[C@H](CCCCN)N(C)C(=O)[C@H](CC(=O)O)NC(=O)[C@H](CCC(N)=O)N(C)C(=O)[C@H](CCC(N)=O)N(C)C(=O)CSC[C@@H](C(N)=O)N(C)C(=O)[C@H](Cc2ccc(-c3cnn(C)c3)cc2)NC(=O)CNC(=O)[C@H](Cc2ccc3ccccc3c2)N(C)C(=O)[C@H](Cc2ccc(CC(=O)O)cc2)NC(=O)[C@H]([C@@H](C)CC)NC1=O [Conjugate 2-52] ({CH2CO}-[NMeQ][NMeQ]D[NMeK][Phe(4-COOH)]II[Phe(4-CH2COOH)][NMe2Nal]G[Phe(4-(1-Me-pyrazol-4-yl))][NMeC]-NH2; thioether N-12) the Kd was 1.6 nM. Molecule CC[C@H](C)[C@@H]1NC(=O)[C@H]([C@@H](C)OC)NC(=O)[C@H](Cc2ccc(C(=O)O)cc2)NC(=O)[C@H](CNC(=O)N2CCN(CC(=O)O)CC2)N(C)C(=O)[C@H](CC(=O)O)NC(=O)[C@H](CCOC)N(C)C(=O)[C@H](CCCCNC(=O)N2CCN(CC(=O)O)CC2)N(C)C(=O)SCC[C@@H](C(N)=O)N(C)C(=O)[C@H](Cc2ccc(-c3ccccc3)nc2)NC(=O)CNC(=O)[C@H](Cc2ccc3ccncc3c2)N(C)C(=O)[C@H](Cc2ccc(OCCN)cc2)NC1=O [Conjugate 2-38] has a Kd of 1.8 nM. CC[C@H](C)[C@@H]1NC(=O)[C@H]([C@@H](C)OC)NC(=O)[C@H](Cc2ccc(C(=O)O)cc2)NC(=O)[C@H](CNC(=O)N2CCN(CC(=O)O)CC2)N(C)C(=O)[C@H](CC(=O)O)NC(=O)[C@H](CCOC)N(C)C(=O)[C@H](CNC(=O)N2CCN(CC(=O)O)CC2)N(C)C(=O)CSC[C@@H](C(N)=O)N(C)C(=O)[C@H](Cc2ccc(-c3ccccc3)nc2)NC(=O)CNC(=O)[C@H](Cc2ccc3ccncc3c2)N(C)C(=O)[C@H](Cc2ccc(OCCN)cc2)NC1=O [Conjugate 2-37] ({CH2CO}-[NMeDap]([CO-Piperazinyl(4-CH2COOH)])[NMehSer](Me)D[NMeDap]([CO-Piperazinyl(4-CH2COOH)])[Phe(4-COOH)]T(Me)I[AEF][NMeAla(isoquinolin-7-yl)]G[3Pal(6-Ph)][NMeC]-NH2; thioether N-12 (inferred)) was tested, and the Kd was 1 nM.

Each molecule was assayed against T1, Human Glypican3-Fc (ACRO Biosystems, GP3-H5258) (human, UniProt P51654 25-559) (assay: SPR (Biacore T200), Method B-3: Glypican3-Fc captured on Protein A chip, peptide as analyte). Conditions: not given.
T1 construct: Bought fusion protein, captured in Methods B-2, B-3 and B-4; Catalogue number is printed only in Method B-2; not shown: Fc part of the bought fusion
Protocol: as §1, with “After that, 5 serial dilution series (100 nM, 50 nM, 25 nM, 10 nM, 5 nM) of peptide solutions were prepared.” left out
as §2
Molecule B1 has a Kd of 0.1 nM. With B2 the Kd was 1.6 nM. For B3, the Kd was 1.53 nM. With B4 the Kd was 5.3 nM. B5 gave a Kd of 1 nM. Molecule B6 has a Kd of 7.9 nM. With B7 the Kd was 0.9 nM. With B8 the Kd was 0.88 nM. Molecule B9 has a Kd of 1.08 nM. Molecule B10 has a Kd of 4.2 nM. Molecule B11 has a Kd of 0.11 nM. B12 showed a Kd of 0.75 nM.
